Experimental data published in PMC11130294 (Nature Communications, 2024).

B1: NorA (wild-type, Staphylococcus aureus efflux pump) (natural protein)
chain: MNKQIFVLYFNIFLIFLGIGLVIPVLPVYLKDLGLTGSDLGLLVAAFALSQMIISPFGGTLADKLGKKLIICIGLILFSVSEFMFAVGHNFSVLMLSRVIGGMSAGMVMPGVTGLIADISPSHQKAKNFGYMSAIINSGFILGPGIGGFMAEVSHRMPFYFAGALGILAFIMSIVLIHDPKKSTTSGFQKLEPQLLTKINWKVFITPVILTLVLSFGLSAFETLYSLYTADKVNYSPKDISIAITGGGIFGALFQIYFFDKFMKYFSELTFIAWSLLYSVVVLILLVFANGYWSIMLISFVVFIGFDMIRPAITNYFSNIAGERQGFAGGLNSTFTSMGNFIGPLIAGALFDVHIEAPIYMAIGVSLAGVVIVLIEKQHRAKLKEQNM
B2: Fab36 (Fab, V domains shown)
VH: EVQLVESGGGLVQPGGSLRLSCAASGFTFSSSSIHWVRQAPGKGLEWVASISSSSGSTSYADSVKGRFTISADTSKNTAYLQMNSLRAEDTAVYYCARYSRYYYYAWRVGGYWGGLDYWGQGTLVTVFN
VL: DIQMTQSPSSLSASVGDRVTITCRASQSVSSAVAWYQQKPGKAPKLLIYSASSLYSGVPSRFSGSRSGTDFTLTISSLQPEDFATYYCQQSSSSLITFGQGTKVEIK
notes: also called outward-open-specific Fab36

Assays:
FabDA1 [1] = test: MST; pH 7.5: Fab labelled with a 647-nm fluorophore at 40 nM, NorA in PMAL-C8 amphipol at varied concentrations; 20 mM Tris pH 7.5, 100 mM NaCl, 0.025% Tween-20; 15 min incubation; fit with Hill slope 1.0; three replicates
FabDA1 [2] = test: MST; pH 5.0: Fab labelled with a 647-nm fluorophore at 40 nM, NorA in PMAL-C8 amphipol at varied concentrations; 50 mM acetate pH 5.0, 100 mM NaCl, 0.025% Tween-20; 15 min incubation; fit with Hill slope 1.0; three replicates
[3] = biological target: T1, Staphylococcus aureus efflux pump NorA, wild type (S. aureus, UniProt P0A0J7); test: MST; NorA in amphipol at varied concentrations mixed with fluorophore-labelled Fab at 40 nM; 20 mM Tris pH 7.5, 100 mM NaCl, 0.025% Tween-20; 15 min incubation; three replicates; conditions: both partners purified
T1 construct: NorA, major facilitator superfamily efflux pump of S. aureus; the construct is not described here; The C-terminal Myc tag is told only for the MRSA expression plasmid, not for this E. coli protein; also called wild-type NorA

Row | Binder | Kd (FabDA1 [1]) | Kd (FabDA1 [2]) | binding result [3]
1 | B1 | > 24500 nM | 2900 nM | 
2 | B2 |  |  | binds
